For one molecule, Kd, koff and kon results are on record in US20190106494A1 (published 2019).

This experiment concerns the target PD-L1 (soluble; 'PD-L1 ligand' of the Octet assay) (UniProt Q9NZQ7 19-238, limits assumed). The experiment can be described thus: BLI (Octet RED 96), antibody on anti-human IgG capture sensor, PD-L1 in solution, 1:1 fit. How it is done:
Affinity Measurement: The affinity measurement was conducted with Octet RED 96 (ForteBio) instrument at 30 degree Celsius. Briefly, anti-human IgG capture sensor (AHC from ForteBio cat #18-5060) was equilibrated with assay buffer (1× dilution of 10× Kinetics Buffer (ForteBio, Cat #18-5032). Test antibody samples were diluted to 3 ug/mL and allowed to bind to the sensors for 5 min. The sensors were then washed in assay buffer for 3 minutes, and PD-L1 ligand diluted at different concentrations were allowed to bind to the mAb coated on the sensors for 5 minutes. Afterwards, dissociation was followed for 10 minutes in the assay buffer. The sensors could be regenerated by washing in glycine buffer and assay buffer 3 times. The data were fitted with 1:1 binding model using the ForteBio software.

The Kd is the constant that tells how readily two partners part at equilibrium. High values mean a looser complex, low ones a tighter complex. For orientation: koff means the first-order rate constant of dissociation. High values mean fast dissociation, low ones slow dissociation. The kon is a measure of how fast the partners come together. A lower kon goes with slow association.

PD-L1 (soluble; 'PD-L1 ligand' of the Octet assay), sequence (Q9NZQ7 19-238 limits assumed): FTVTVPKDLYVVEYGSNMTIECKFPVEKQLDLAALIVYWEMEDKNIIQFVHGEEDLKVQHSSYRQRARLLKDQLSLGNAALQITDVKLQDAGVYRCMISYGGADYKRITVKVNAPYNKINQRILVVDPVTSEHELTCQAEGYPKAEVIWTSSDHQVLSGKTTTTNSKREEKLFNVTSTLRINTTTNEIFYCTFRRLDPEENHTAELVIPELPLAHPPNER

B1: 111F1 chimeric anti-PD-L1 antibody (antibody, V domains shown)
VH: CQSVKESEGGLFKPTDTLTLTCTVSGIDLNSIAISWVRQAPGNGLEWIGTIGSSGSAYYASWAKSRSTITRNTSENTVTLEMTSLTAADTATYFCAKEILYYGMDLWGPGTLVTVSS
VL: DPVMTQTPASVSEPVGGTVTINCQASQSISSYLAWYQQKPGQRPKLLIYAASNVEPGVPSRFRGRGSGTQFTLTISDLECDDAATYYCQSTYGSTGGGDYGNAFGGGTKVVVVR
Molecule B1 gave a Kd of 0.162 nM, a koff of 6.2e-05 s⁻¹ and a kon of 769000 M⁻¹ s⁻¹.
